The target of assay [1] is T1, human immunoglobulin E (hIgE) (human, UniProt P01854-1 1-428).
T1 construct: also called human IgE; Native IgE (Abcam)
Kind of assay: competition ELISA.
Procedure: (§1) The IC50 values of each compound were calculated with a non-linear regression (log(agonist) vs. response Variable slope (four parameters)).

In assay [2] the target is T1, human immunoglobulin E (hIgE). Kind of assay: SPR competition, hIgE over hFcεRIα chip, pH 5.5.
Procedure: (§2) The assay was performed in HBS-EP pH7.4 or HBS-EP pH 5.5. Raw data were analyzed via BIA evaluation software with a blank subtraction (2-1). […] The IC50 values of each compound were calculated with a non-linear regression (log(agonist) vs. response Variable slope (four parameters)).
(§3) Raw data were analyzed via BIA evaluation software with a blank subtraction (2-1). […] The IC50 values of each compound, calculated with a non-linear regression (log(agonist) vs. response Variable slope (four parameters)).
The target is the same in assay [3]. The assay is described as follows: SPR competition, hIgE over hFcεRIα chip, pH 7.4.
Procedure: as §2, §3
Assay [4] shares this target. Kind of assay: competition ELISA, biotin-hIgE to coated hFcεRIα, pH 6.
Procedure: as §1
For assay [5] the target is unchanged. The assay is described as follows: competition ELISA, biotin-hIgE to coated hFcεRIα, pH 7.4. (An ELISA detects its analyte on a solid surface through an enzyme-linked reagent.)
Procedure: as §1
For assay [6] the target is unchanged. The assay is described as follows: competition ELISA, hIgE to coated hFcεRIα, pH 6.
Procedure: (§4) The IC50 values of each antibody were calculated with a non-linear regression (log(agonist) vs. response Variable slope (four parameters)).
For assay [7] the target is unchanged. Kind of assay: competition ELISA, hIgE to coated hFcεRIα, pH 7.4.
Procedure: as §4
For assay [8] the target is unchanged. The assay is described as follows: SPR competition, hIgE + mAb over hFcεRIα chip, pH 6 (text: pH 5.5).
Procedure: (§5) For this purpose, a competition approach was set-up. […] The assay was performed in HBS-EP pH7.4 or HBS-EP pH 5.5. Raw data were analyzed via BIA evaluation software with a blank subtraction (2-1). […] The IC50 values of each compound were calculated with a non-linear regression (log(agonist) vs. response Variable slope (four parameters)).
Assay [9] shares this target. Kind of assay: SPR competition, hIgE + mAb over hFcεRIα chip, pH 7.4.
Procedure: as §5
For assay [10] the target is unchanged. The assay is described as follows: SPR competition.
Procedure: as §5

T1 sequence (P01854 whole entry): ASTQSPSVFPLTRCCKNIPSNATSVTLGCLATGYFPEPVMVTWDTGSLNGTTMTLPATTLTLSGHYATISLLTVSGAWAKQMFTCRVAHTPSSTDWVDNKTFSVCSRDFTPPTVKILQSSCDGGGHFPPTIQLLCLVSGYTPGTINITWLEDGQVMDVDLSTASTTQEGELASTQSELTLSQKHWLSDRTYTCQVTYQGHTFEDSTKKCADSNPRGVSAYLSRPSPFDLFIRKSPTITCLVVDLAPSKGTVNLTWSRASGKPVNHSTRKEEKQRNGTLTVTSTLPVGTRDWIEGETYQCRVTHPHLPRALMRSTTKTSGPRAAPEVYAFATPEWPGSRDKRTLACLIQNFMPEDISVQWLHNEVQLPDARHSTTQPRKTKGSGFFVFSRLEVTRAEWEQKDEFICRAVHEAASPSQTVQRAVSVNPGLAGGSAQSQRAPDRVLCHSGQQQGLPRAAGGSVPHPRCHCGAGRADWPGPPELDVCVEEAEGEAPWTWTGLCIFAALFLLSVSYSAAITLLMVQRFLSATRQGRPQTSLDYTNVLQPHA

B1: 18E2 human IgG1 mAb (antibody, V domains shown)
VH: QLQLVESGGGLVQPGGSLRLSCAASGFTFSSYVMSWVRQAPGKGLEWVSSIYHDGSHTYYADFVKGRFTISRDNAKNTLYLQMNSLKSEDTAVYYCASGTSYSGSYYYTDPFFGSWGQGTQVTVSS
VL: NFMLTQPSALSVTLGQTARITCQGDRLGSRYIYWYQQKPPQAPVLVIHDDDRRPSGIPERFSGSSSGGTATLTISGAQAEDDGDYYCQSADSSGNPVFGGGTHLTVL
notes: also called clone 18E2
Regarding B1, the “Ratio pH 6/7.4 (IC50)” value in assay [1] amounted to 2.4. Further, the IC50 (as a rule, the concentration needed to halve the response being measured) in assay [2] was found to be 0.484 µg/mL; in [3], 0.628 µg/mL; in [4], 87.8 nM; in [5], 36.9 nM.

B2: VL18E2_Y34H (antibody, V domains shown)
VH: QLQLVESGGGLVQPGGSLRLSCAASGFTFSSYVMSWVRQAPGKGLEWVSSIYHDGSHTYYADFVKGRFTISRDNAKNTLYLQMNSLKSEDTAVYYCASGTSYSGSYYYTDPFFGSWGQGTQVTVSS
VL: NFMLTQPSALSVTLGQTARITCQGDRLGSRYIHWYQQKPPQAPVLVIHDDDRRPSGIPERFSGSSSGGTATLTISGAQAEDDGDYYCQSADSSGNPVFGGGTHLTVL
As for B2, the results for the IC50 in [2] and in assay [3] were 5.18 µg/mL and 1.1 µg/mL, respectively.

B3: 18E2His2_MG (antibody, V domains shown)
VH: EVQLLESGGGLVQPGGSLRLSCAASGFTFSSYVMHWVRQAPGKGLEWVSSIYHDGSHTYYADFVKGRFTISRDNSKNTLYLQMNSLRAEDTAVYYCAKGTSYSGSYYYTDPFFGSWGQGTLVTVSS
VL: SSELTQDPAVSVALGQTVRITCQGDRLGSRYIHWYQQKPGQAPVLVIYDDDRRPSGIPDRFSGSSSGNTASLTITGAQAEDEADYYCQSADSSGNPVFGGGTQLTVL
notes: also called 18E2VHS35HVLY34HMG
In the case of B3, the values for the IC50 in [6] and in assay [7] were about 11300 µg/mL and 3.91 µg/mL, respectively.

B4: VH18E2_S35H (antibody, V domains shown)
VH: QLQLVESGGGLVQPGGSLRLSCAASGFTFSSYVMHWVRQAPGKGLEWVSSIYHDGSHTYYADFVKGRFTISRDNAKNTLYLQMNSLKSEDTAVYYCASGTSYSGSYYYTDPFFGSWGQGTQVTVSS
VL: NFMLTQPSALSVTLGQTARITCQGDRLGSRYIYWYQQKPPQAPVLVIHDDDRRPSGIPERFSGSSSGGTATLTISGAQAEDDGDYYCQSADSSGNPVFGGGTHLTVL
Turning to B4, the IC50 in assay [2] was determined as 3.73 µg/mL; in assay [3] it was 0.811 µg/mL.

B5: 13E4_MG (antibody, V domains shown)
VH: EVQLLESGGGLVQPGGSLRLSCAASGFTFSSYVMSWVRQAPGKGLEWVSSIYHDGSHTYYADFVKGRFTISRDNSKNTLYLQMNSLRAEDTAVYYCAKGTSYSGSYYYTDPFFGSWGQGTLVTVSS
VL: SSELTQDPAVSVALGQTVRITCQGGSLGSNYAYWYQQKPGQAPVLVIYDDDSRPSGIPDRFSGSSSGNTASLTITGAQAEDEADYYCQSADSNGNAVFGGGTQLTVL
notes: germlined clone; also called germlined 13E4
For the molecule B5, the IC50 in assay [6] turned out to be 0.0633 µg/mL; in assay [7], 0.0242 µg/mL.

B6: VH3D1_S35H (antibody, V domains shown)
VH: QLQVVESGGGLVQPGGSLRLSCAASGFTFSSYYMHWVRQAPGKGLEWVSSIYSDGRGSKTFYADSVKGRFTISRDNAKNTLYLQMNSLKSEDTAVYFCAKDLLVAARGSMDYWGQGTQVTVSS
VL: NFMLTQPSAVSVSLEQTARITCQGGTLGSYGAHWYQQKPGQAPVLLIYGDNSRPSGIPERFSGTRSGGTATLTISGAQAEDEADYYCQSFDYSGNAVFGGGTHLTVL
B6: the IC50 amounted to 23 µg/mL in assay [2] and 15.5 µg/mL in assay [3].

B7: 3A1 human IgG1 mAb (antibody, V domains shown)
VH: EVQVQESGGGLVQPGGSLRLSCAASGFTFDNYAMSWVRQAPGKGLEWVSAISWNGGSTYYAESMKGRFTISRDNAKNMLYLQMNSLKSEDTAVYYCAKDLLVAARGGMDYWGKGTLVTVSS
VL: SSALTQPSAVSVSLEQTARITCQGGTLGSYGAHWYQQKPGQAPVLLIYGDNSRPSGIPERFSGTRSGGTATLTISGAQAEDEADYYCQSFDYSGNAVFGGGTHLTVL
notes: human IgG1 and human light chain constant domains; also called clone 3A1
As to B7, the IC50 in [8] stood at 6.91 nM; in [9] it was 4.76 nM; in assay [4] it was 148 nM; in [5] it was 152 nM. The “Ratio pH 6/7.4 (IC50)” value in [10] stood at 1.5; in assay [1] it was 1.

B8: VL3D1_Y49H VL3D1_Q89H (antibody, V domains shown)
VH: QLQVVESGGGLVQPGGSLRLSCAASGFTFSSYYMSWVRQAPGKGLEWVSSIYSDGRGSKTFYADSVKGRFTISRDNAKNTLYLQMNSLKSEDTAVYFCAKDLLVAARGSMDYWGQGTQVTVSS
VL: NFMLTQPSAVSVSLEQTARITCQGGTLGSYGAHWYQQKPGQAPVLLIHGDNSRPSGIPERFSGTRSGGTATLTISGAQAEDEADYYCHSFDYSGNAVFGGGTHLTVL
For the molecule B8, the IC50 in assay [2] was 15.2 µg/mL; in assay [3], 4.41 µg/mL.

B9: 18E2_VL Y34H_MG (antibody, V domains shown)
VH: QLLESGGGLVQPGGSLRLSCAASGFTFSSYVMSWVRQAPGKGLEWVSSIYHDGSHTYYADFVKGRFTISRDNSKNTLYLQMNSLRAEDTAVYYCAKGTSYSGSYYYTDPFFGSWGQGTLVTVSS
VL: SSELTQDPAVSVALGQTVRITCQGDRLGSRYIHWYQQKPGQAPVLVIYDDDRRPSGIPDRFSGSSSGNTASLTITGAQAEDEADYYCQSADSSGNPVFGGGTQLTVL
notes: germlined clone
For the molecule B9, the 50% inhibitory concentration (IC50) in assay [6] turned out to be 61.4 µg/mL; in [7], 0.706 µg/mL.

B10: 18B9 human IgG1 mAb (antibody, V domains shown)
VH: QVQLVESGGGLVQPGGSLRLSCAASGFTFSSYVMSWVRQAPGKGLEWVSSIYSDGSHTYYADSVKGRFTISRDNAKNTLYLQMNSLKSEDTAVYYCAKNLEHYSGSYYYTDPRYDYWGQGTQVTVSS
VL: SSALTQPSALSVTLGQTAKITCQGGSLGSSYVHWYQQKPGQAPVLVIYDGDSRPSGIPERFSGSSSGGTATLTISGAQAEDEDDYYCQSADSSGNAVFGGGTHLTVL
notes: human IgG1 and human light chain constant domains; also called clone 18B9
Consider B10, for which the IC50 in [8] turned out to be 5.65 nM; in assay [9] it was 4.09 nM; in assay [2], 1.07 µg/mL; in assay [3], 0.662 µg/mL; in assay [4], 112 nM; in assay [5] it was 41.9 nM. Further, the entries for the “Ratio pH 6/7.4 (IC50)” value in assay [10] and in [1] were 1.4 and 2.7, respectively.

B11: 20D5 human IgG1 mAb (antibody, V domains shown)
VH: QLQLVESGGGLVQPGGSLRLSCAASGFAFSSYVMTWVRQAPGKGLEWVSSIYSDGSHTYYADSVKDRFTISRDNAKNTLFLQMNSLKSEDTAVYYCAKDAEYYSGSYYYTDTKYDYWGQGTQVTVSS
VL: SSALTQPSALSVTLGQTAKITCQGGSLGSSYAHWYQQKPGQAPVLVIYADDSRPSGIPERFSGSSSGGTATLTISGAQAEDEGDYYCQSADSSGNAVFGGGTHLTVL
notes: also called clone 20D5
On to B11, for which the half-inhibitory concentration (IC50) came to 3.83 nM in assay [8], 3.38 nM in assay [9], 39.1 nM in [4] and 35.2 nM in [5]. Moreover, the “Ratio pH 6/7.4 (IC50)” value in [10] and in assay [1] was 1.1 each time.

B12: 18B9_VH_S35H_VL_Y49H (antibody, V domains shown)
VH: QVQLVESGGGLVQPGGSLRLSCAASGFTFSSYVMHWVRQAPGKGLEWVSSIYSDGSHTYYADSVKGRFTISRDNAKNTLYLQMNSLKSEDTAVYYCAKNLEHYSGSYYYTDPRYDYWGQGTQVTVSS
VL: SSALTQPSALSVTLGQTAKITCQGGSLGSSYVHWYQQKPGQAPVLVIHDGDSRPSGIPERFSGSSSGGTATLTISGAQAEDEDDYYCQSADSSGNAVFGGGTHLTVL
With B12, the results for the 50% inhibitory concentration (IC50) in assay [2] and in assay [3] were 24.6 µg/mL and 26.3 µg/mL, respectively.

B13: 3D6 human IgG1 mAb (antibody, V domains shown)
VH: QVQLVESGGGLVQPGGSLRLSCAASGFTFSSYYMTWVRQAPGKGLEWVSSIYSDGSNTYYADSVKGRFTISRDNAKNTLHLQMNSLKSEDTAVYYCAKDLKARYSGSYHDEGYDYWGQGTQVTVSS
VL: QSALTQPSALSVTLGQTAKITCQGGSLGSSYAHWYQQKPGQAPVLVIYDDDSRPSGIPERFSGSSSGGRATLTISGAQAEDEGDYYCQSADSSGNPVFGGGTKLTVL
notes: human IgG1 and human light chain constant domains; also called clone 3D6
B13: the IC50 in [8] came out at 8.04 nM; in assay [9] it was 4.37 nM; in [4], 214 nM; in assay [5] it was 75.4 nM. For the same molecule, the “Ratio pH 6/7.4 (IC50)” value turned out to be 1.8 in assay [10] and 2.8 in assay [1].

B14: 16E4 human IgG1 mAb (antibody, V domains shown)
VH: EVQLVESGGGLVQPGGSLRLSCAASGFTFSSYYMSWVRQAPGKGLEWVSSIYSDGSYAYYADSVKGRFTISRDNAKNTLYLQMNSLKSEDTAVYYCAKDLKARYSGTYHDEGYDYWGQGTQVTVSS
VL: SSALTQPSALSVTLGQSAKITCQGGSLGATYAYWYQQKPGQAPVLVIYDDDSRPSGIPERFSGSSSGGRATLTISGAQAEDEGDYYCQSAYSNGNAVFGGGTHLTVL
notes: also called clone 16E4
Take B14: the IC50 in assay [8] came out at 5.17 nM; in assay [9] it was 4.25 nM; in assay [4], 156 nM; in assay [5] it was 58 nM. Moreover, the figures for the “Ratio pH 6/7.4 (IC50)” value in assay [10] and in [1] were 1.2 and 2.7, respectively.

B15: VH18B9_S35H (antibody, V domains shown)
VH: QVQLVESGGGLVQPGGSLRLSCAASGFTFSSYVMHWVRQAPGKGLEWVSSIYSDGSHTYYADSVKGRFTISRDNAKNTLYLQMNSLKSEDTAVYYCAKNLEHYSGSYYYTDPRYDYWGQGTQVTVSS
VL: SSALTQPSALSVTLGQTAKITCQGGSLGSSYVHWYQQKPGQAPVLVIYDGDSRPSGIPERFSGSSSGGTATLTISGAQAEDEDDYYCQSADSSGNAVFGGGTHLTVL
B15: the IC50 in [2] is 22.3 µg/mL; in [3], 21.7 µg/mL.

Source of the values: patent US20220177604A1 (ARGENX, published 2022).
